To fix the notation:
B1: PRT-583 (protein)
chain: MANQEIRYSKAKPKVITSVWTKGVTPPTQFTKNEDVFHAPYLANQGWYDITKTFNGKDDLLCGAATAGNMLHWWFDQNKEQIERYLKKHPEKQKINFNGEQMFDVKEAIDTKDSQTNSKLFNYFKEKAFPYLSTKHLGVFPDHVIDMFINGYRLSLTNHGPTPVKEQNKDPRGGIFDDVFTRGDQSKLLTSRHDFKEKTLKEISDLIKQELKEGKALGLSHTYANVRINHVINLWGADFDAEGNLIAIYVTDSDSNASIGMKKYYVGVNSAGKVAISAKEIEDDNIGAQVLGLFTLSTGKDIWEKTNLEHHHHHH
B2: PRT-261 (protein)
chain: MVTSVWTKGVTPPTNFTYGEDVLHAPYVANQGWYDITKLFNGKDNLLCGAATAGNMLHWWFDQNKEQIENYLKKHPEKQKINFNGEQLFDVKEAIDTKDSQLDSKLFDYFKEKAFPNLSTKHLGVFPDHVIDMFINGYRLSLLNHGPTPVKRGSKDKRGGIFDAVFTRGVQSKLLTNRHDFKEKTLKEISDLIKQELTEGKALGISHTYANGRINHVINLWGADFDAEGNLEAIYVTDSDTNPSIGMKKYFVGVNSSGKVAISAKEIEEDNIGAQVLGLFTLSTGQDIWNQTN
B3: PRT-559 (protein)
chain: MANQEIRYSEETPKTITSIWTKGVTPPTDFIKTEDVLHAPYVANQGWYDITKTFNGKDDLLCGAATAGNMLHWWFDQNKEEIENYLKKHPEKQKINFNGEQMFDVKEAIDTKDSQTDSALFEYFKDKAFPYLSTKHLGVFPDHVIDMFINGYRLSLTNHGPTPVKDGTKDPRGGIFDAVFTRGDQTKLLTERHDFKEKTLNEISDLIKQELTEGKALGLSHTYANVRINHVINLWGADFNSEGNLEAIYVTDSDSNASIGMKKYYVGVNAAGKVAISAKEIEDDNIGAQVLGLFTLSTGQDIWEQTNLEHHHHHH
B4: PRT-534 (protein)
chain: MANQEIRYSSDSEWANKKVWVYGITPPEEGAWKYSTYYLPWKKEYGWYDCNKRNPTADGMMCWAATASNLLHWWIAQNKEYIDLYGDKYKGPDKINFNGEQMFDVKEYIDPLDKPQESDIFQCFIDKSFADLSTKHEAGYGDAGINWFIHGIIPSSPAHGPTPVKLDYPYNPAGYFKDVFPRGDGVVLLGNNGDFKELSKERFNETIKDALKNKKAIGLSIGPVNVRSSHVVTIWGAEFDENGDVSYIYMADNNDNWGVGCIRYQIVYEEGGTYTCYKTEIIPSDRPIPINRLVTLELGEEYWKQTNLEHHHHHH
B5: PRT-253 (protein)
chain: MVTSVWTKGVTPPTNFTYGEDVLHAPYVANQGWYDITKTFNGKDDLLCGAATAGNMLHWWFDQNKEQIENYLKKHPEKQKINFNGEQMFDVKEAIDTKDSQLDSKLFEYFLEKAFPNLSTKHLGVFPDHVIDMFINGYRLSLLNHGPTPVKRGSKDPRGGIFDAVFTRGDQSKLLTNRHDFKEKTLKEISDLIKQELTEGKALGISHTYANVRINHVINLWGADFDAEGNLEAIYVTDSDSNKSIGMKKYFVGVNSDGKVAISAKEIEEDNIGAQVLGLFTLSTGQDIWNQTN
B6: PRT-269 (protein)
chain: MVTSVWTKGVTPPTDFIYGEDVLHAPYKAGQGWYDITKTFNGKDDLLCGAATAGNMLHWWFDQNKEQIENYLKKHPEKQKINFNGEQMFDVKEAIDTKDSQLDSKLFEYFLEKAFPNLSTKHLGVFPDHVIDMFINGYRLSLLNHGPTPVKRGSKDPRGGIFDAVFTRGDQSKLLTNRHDLKNKTLKEISDLIKQELTEGKALGISHTYANVRINHVINLWGADFDAEGNLEAIAVTDSDSNASIGMKKYFVGVNSSGKVAISAKEIEEDNIGAQVLGLFTLSTGQDIWNQTN
B7: PRT-254 (protein)
chain: MVTSVWTKGVTPPTNFTYGEDVLHAPYVANQGWYDITKTFNGKDDLLCGAATAGNMLHWWFDQNKEQIENYLKKHPEKQKINFNGEQMFDVKEAIDTKDSQLDSKLFEYFLEKAFPNLSTKHLGVFPDHVIDMFINGYRLSLLNHGPTPVKRGSKDPRGGIFDAVFTRGDQSKLLTNRHDFKEKTLKEISDLIKQELTEGKALGISHTYANVRINHVINLWGADFDAEGNLEAIYVTDSDSNKSIGMKKYPVGVNSNGKVAISAKEIEEDNIGAQVLGLFTLSTGQDIWNQTN
B8: PRT-246 (protein)
chain: MVTSVWTKGVTPPANFTQGEDVFHAPYVANQGWYDITKLFNGKDDLLCGAATAGNMLHWWFDQNKDQIKRYLEEHPEKQKINFNGEQMFDVKEAIDTKNHQLDSKLFDYFKEKAFPYLSTKHLGVFPDHVIDMFINGYRLSLTNHGPTPVKEGSKDPRGGIFDAVFTRGDQSKLLTSRHDFKEKNLKEISDLIKKELTEGKALGLSHTYANVRINHVINLWGADFDSNGNLKAIYVTDSDSNPSIGMKKYFVGVNSSGKVAISAKEIKEDNIGAQVLGLFTLSTGQDSWNQTN
B9: PRT-545 (protein)
chain: MANQEIRYSEETPKTITSVWTKGVTPPTDFIKNEDVLHAPYIANQGWYDITKTFNGKDDLLCGAATAGNMLHWWFDQNKEEIERYLKKHPEKQKINFNGEQMFDVKEAIDTKDSQTDSALFEYFKDKAFPYLSTKHLGVFPDHVIDMFINGYRLSLTNHGPTPVKRGTKDPRGGIFDAVFTRGDQSKLLTSRHDFKEKTLKEISDLIKQELTEGKALGLSHTYANVRINHVINLWGADFDSEGNLEAIYVTDSDSNASIGMKKYYVGVNSAGKVAISAKEIEGDNIGAQVLGLFTLSTGQDIWEQTNLEHHHHHH
B10: PRT-571 (protein)
chain: MANQEIRYSEETPSTITSVWTKGVTPPTQFIQNEDVLHAPYIANQGWYDITKTFNGKDDLLCGAATAGNMLHWWFDQNKEQIENYLKKHPEKQKINFNGEQMFDVKEAIDTKDSQTDSALFEYFKDKAFPYLSTKHLGVFPDHVIDMFINGYRLSLTNHGPTPVKRGTKDPRGGIFDAVFTRGDQSKLLTSRHDFKEKTLNEISDLIKQELTEGKALGLSHTYANVRINHVINLWGADFNAEGNLEAIYVTDSDSNASIGMKKYYVGVNAAGKVAISAKEIEGDNIGAQVLGLFTLSTGQDIWNQTNLEHHHHHH
B11: PRT-596 (protein)
chain: MANQEIRYSEETPSTITSVWTKGVTPPTDFIQNEDVLHAPYIANQGWYDITKTFNGKDDLLCGAATAGNMLHWWFDQNKEQIENYLKKHPEKQKINFNGEQMFDVKEAIDTKDSQTDSALFEYFKDKAFPYLSTKHLGVFPDHVIDMFINGYRLSLTNHGPTPVKRGTKDPRGGIFDAVFTRGDQSKLLTSRHDFKEKTLNEISDLIKKELTEGKALGLSHTYANVRINHVINLWGADFNAEGNLEAIYVTDSDSNASIGMKKYYVGVNSAGKVAISAKEIEGDNIGAQVLGLFTLSTGQDIWNQTNLEHHHHHH
B12: PRT-587 (protein)
chain: MANQEIRYSEETPKTITSVWTKGVTPPTDFIYNEDVLHAPYIANQGWYDITKTFNGKDDLLCGAATAGNMLHWWFDQNKEQIERYLKKHPEKQKINFNGEQMFDVKEAIDTKDSQTDSKLFEYFKDKAFPYLSTKHLGVFPDHVIDMFINGYRLSLTNHGPTPVKRGTKDPRGGIFDAVFTRGDQSKLLTSRHDFKEKTLNEISDLIKQELTEGKALGLSHTYANVRINHVINLWGADFNSEGNLEAIYVTDSDSNASIGMKKYYVGVNSAGKVAISAKEIEGDNIGAQVLGLFTLSTGKDIWEQTNLEHHHHHH
B13: PRT-544 (protein)
chain: MANQEIRYSKNENPNVTIKWVHGIGEPTQAEKEKIEFWWYETTTTKFFNNRKVDHLGDGNQCWAKTDSNMLHWWFVQNEENINQYIAKKNITGKINFNGEQMFDVKEGIDDNQEKEKSYIANTFRTKKAHNLSTKHKGDYIINGLSWYLYGLNNFKIAHGPTPVKKKPKFYGPALFKDVFNRGDGNTPIIVETDFKEYTKKEFEDTLSAALDSKKAIGINIYGSNVDYQHAITLWGAAFDEEENIIAIYVVDNNFKFENRIFPYGIWYQKEGRPYLFNYEINSFVKNRYVGEVITLDKGEAQWQETNLEHHHHHH

The data set deals with pooled human IgG (human IgG1, 2, 3 and 4).
Consider B1, for which the Enzyme Activity Endpoint Assay: Fab′2 was 748 ng/µL, the Enzyme Activity Endpoint Assay: Fc turned out to be 396 ng/µL, the Enzyme Activity Endpoint Assay: IgG was determined as 0 ng/µL and the Enzyme Activity Endpoint Assay: scIgG stood at 261 ng/µL.
Taken in the same sequence, the figures for B2 were 0 ng/µL, 76 ng/µL, 615 ng/µL and 317 ng/µL.
Taken in the same sequence, the figures for B3 were 657 ng/µL, 158 ng/µL, 0 ng/µL and 0 ng/µL.
Turning to B4, the Enzyme Activity Endpoint Assay: Fab′2 worked out at 0 ng/µL, the Enzyme Activity Endpoint Assay: Fc was 0 ng/µL, the Enzyme Activity Endpoint Assay: IgG is 1380 ng/µL and the Enzyme Activity Endpoint Assay: scIgG came out at 0 ng/µL.
B5 displayed an Enzyme Activity Endpoint Assay: Fab′2 of 912 ng/µL, an Enzyme Activity Endpoint Assay: Fc of 334 ng/µL, an Enzyme Activity Endpoint Assay: IgG of 0 ng/µL and an Enzyme Activity Endpoint Assay: scIgG of 0 ng/µL.
The protein B6 registered an Enzyme Activity Endpoint Assay: Fab′2 of 98 ng/µL, an Enzyme Activity Endpoint Assay: Fc of 189 ng/µL, an Enzyme Activity Endpoint Assay: IgG of 86 ng/µL and an Enzyme Activity Endpoint Assay: scIgG of 592 ng/µL.
In the case of B7, the Enzyme Activity Endpoint Assay: Fab′2 was 677 ng/µL, the Enzyme Activity Endpoint Assay: Fc came to 359 ng/µL, the Enzyme Activity Endpoint Assay: IgG came to 0 ng/µL and the Enzyme Activity Endpoint Assay: scIgG was 0 ng/µL.
B8 registered an Enzyme Activity Endpoint Assay: Fab′2 of 666 ng/µL, an Enzyme Activity Endpoint Assay: Fc of 348 ng/µL, an Enzyme Activity Endpoint Assay: IgG of 0 ng/µL and an Enzyme Activity Endpoint Assay: scIgG of 221 ng/µL.
Consider B9, for which the Enzyme Activity Endpoint Assay: Fab′2 turned out to be 690 ng/µL, the Enzyme Activity Endpoint Assay: Fc was 435 ng/µL, the Enzyme Activity Endpoint Assay: IgG turned out to be 0 ng/µL and the Enzyme Activity Endpoint Assay: scIgG is 0 ng/µL.
Take B10: the Enzyme Activity Endpoint Assay: Fab′2 is 786 ng/µL, the Enzyme Activity Endpoint Assay: Fc was determined as 383 ng/µL, the Enzyme Activity Endpoint Assay: IgG came to 0 ng/µL and the Enzyme Activity Endpoint Assay: scIgG is 295 ng/µL.
On the same counts, the results for B11 are 753 ng/µL, 348 ng/µL, 0 ng/µL and 263 ng/µL.
On to B12, for which the Enzyme Activity Endpoint Assay: Fab′2 is 347 ng/µL, the Enzyme Activity Endpoint Assay: Fc is 156 ng/µL, the Enzyme Activity Endpoint Assay: IgG was found to be 0 ng/µL and the Enzyme Activity Endpoint Assay: scIgG was 120 ng/µL.
As for B13, the Enzyme Activity Endpoint Assay: Fab′2 was 12 ng/µL, the Enzyme Activity Endpoint Assay: Fc amounted to 170 ng/µL, the Enzyme Activity Endpoint Assay: IgG stood at 314 ng/µL and the Enzyme Activity Endpoint Assay: scIgG is 748 ng/µL.

Source of the values: patent US20250027068.
